First the molecules themselves.
B1: Eukaryotic translation initiation factor 2-alpha kinase 1 (Mus musculus), Q9Z2R9 (parent)
chain: MLGGSSVDGERDTDDDAAGAVAAPPAIDFPAEVSDPKYDESDVPAELQVLKEPLQQPTFPFLVANQLLLVSLLEHLSHVHEPNPLHSKQVFKLLCQTFIKMGLLSSFTCSDEFSSLRLHHNRAITHLMRSAKERVRQDPCQDNSYMQKIRSREIAFEAQTSRYLNEFEELAILGKGGYGRVYKVRNKLDGQHYAIKKILIKSATKTDCMKVLREVKVLAGLQHPNIVGYHTAWIEHVHVVQPQDRVPIQLPSLEVLSEQEGDRDQGGVKDNESSSSIVFAELTPEKEKPFGESEVKNENNNLVSYTANLVVRNSSESESSIELQEDGLTDLSVRPVVRHQLPLGHSSELEGNFTSTDESSEGNLNLLGQTEVRYHLMLHIQMQLCELSLWDWITERNKRSREYVDEAACPYVMASVATKIFQELVEGVFYIHNMGIVHRDLKPRNIFLHGPDQQVKIGDFGLACADIIQNADWTNRNGKGTRTHTSRVGTCLYASPEQLEGSQYDAKSDMYSLGVILLELFQPFGTEMERATVLTGVRTGRIPESLSKRCPVQAKYIQLLTGRNVSQRPSALQLLQSELFQTTGNVNLTLQMKIIEQEKEIEELKKQLSLLSQDRGLKR

In one assay the parent is B1. The note with it: with if2a_mouse Eif2s1, Q6ZWX6.
Sequence of if2a_mouse Eif2s1, Q6ZWX6 (Q6ZWX6 whole entry): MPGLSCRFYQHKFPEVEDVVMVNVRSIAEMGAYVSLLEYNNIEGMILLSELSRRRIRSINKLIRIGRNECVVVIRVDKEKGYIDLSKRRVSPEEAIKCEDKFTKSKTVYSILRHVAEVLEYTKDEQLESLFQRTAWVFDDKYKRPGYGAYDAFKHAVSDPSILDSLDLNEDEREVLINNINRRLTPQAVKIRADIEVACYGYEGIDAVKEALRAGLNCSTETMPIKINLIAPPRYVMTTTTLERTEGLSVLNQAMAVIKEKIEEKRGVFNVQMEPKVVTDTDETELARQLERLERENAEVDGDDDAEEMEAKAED
H120A: the “effect of a mutation on the interaction” value is recorded as “decreasing interaction”. Still for that read-out and setting: to H119A belongs “decreasing interaction”.

In another assay the parent is B1. The note with it: with if2a_mouse Eif2s1, Q6ZWX6. This is another data set of the same source.
For the variant K196R, the “effect of a mutation on the interaction” value is recorded as “disrupting interaction”.

Variants of B1 are the subject of the next assay. The note with it: with if2a_mouse Eif2s1, Q6ZWX6. The source holds these as a separate data set.
In the case of T490A, the “effect of a mutation on the interaction” value is given as “disrupting interaction”.

In the next assay the parent is B1. Particulars: with if2a_mouse Eif2s1, Q6ZWX6. This is another data set of the same source.
With Y193F, the “effect of a mutation on the interaction” value was “decreasing interaction”.

In a further assay the parent is B1. Particulars: with if2a_mouse Eif2s1, Q6ZWX6. This is another data set of the same source.
On to T485A, for which the “effect of a mutation on the interaction” value is on record as “decreasing interaction”.

Variants of B1 are the subject of another assay. Particulars: with if2a_mouse Eif2s1, Q6ZWX6. The source holds these as a separate data set.
On to S502A, for which the “effect of a mutation on the interaction” value is listed as “disrupting interaction”.
